Source: patent US20230235072A1 (DENALI THERAPEUTICS, published 2023)
Where two headings read alike, the source gives them in different places.

Tests used:
[1] = molecular target: T1, CH3C.35 Fc-Fab fusion (bivalent) (Homo sapiens (Human), UniProt P0DOX5 230-449 = IgG part); test: phage ELISA: phage-displayed human TfR apical domain, dilution series on plate-coated CH3C.35; OD650
T1 construct: bivalent for TfR; also called CH3C.35.bi; CHC3.35
T1 Fc: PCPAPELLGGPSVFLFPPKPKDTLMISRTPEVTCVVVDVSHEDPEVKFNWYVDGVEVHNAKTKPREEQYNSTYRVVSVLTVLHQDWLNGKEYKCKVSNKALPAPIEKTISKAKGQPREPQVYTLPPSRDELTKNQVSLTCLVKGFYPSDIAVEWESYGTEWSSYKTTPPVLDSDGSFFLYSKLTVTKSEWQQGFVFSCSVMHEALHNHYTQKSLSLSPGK
Protocol: (§1) The plates were subsequently washed and anti-M13-HRP was added, and after additional washing the plates were developed with TMB substrate and quenched with 2N […].

CH3C.18 Fc-Fab fusion = molecular target: T2, CH3C.18 Fc-Fab fusion (Homo sapiens (Human), UniProt P0DOX5 230-449 = IgG part); test: phage ELISA: phage-displayed human TfR apical domain, dilution series on plate-coated CH3C.18; OD650
T2 construct: bivalent for TfR; also called CH3C.18.1.18
T2 Fc: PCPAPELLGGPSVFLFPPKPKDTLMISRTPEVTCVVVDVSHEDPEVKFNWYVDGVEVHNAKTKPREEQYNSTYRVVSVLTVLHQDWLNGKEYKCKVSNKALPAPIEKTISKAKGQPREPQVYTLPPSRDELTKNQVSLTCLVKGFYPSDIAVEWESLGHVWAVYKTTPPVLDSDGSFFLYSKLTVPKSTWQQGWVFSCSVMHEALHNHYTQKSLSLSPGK
Protocol: as §1

[2] = molecular target: T1, CH3C.35 Fc-Fab fusion (bivalent); test: phage ELISA: phage-displayed TfR apical domain, dilution series on plate-coated CH3C.35; OD650
Protocol: as §1

[3] = molecular target: T3, cynomolgus transferrin receptor (TfR) ectodomain (ECD) (cynomolgus, UniProt Q5RDH6 121-760 (Pongo abelii entry), biotinylated where captured on streptavidin); test: phage ELISA: Fc variant on phage, titrated by OD268 of the phage solution on plate-coated cyno TfR; OD650
T3 construct: also called cyno TfR; cynoTfR
T3 chain: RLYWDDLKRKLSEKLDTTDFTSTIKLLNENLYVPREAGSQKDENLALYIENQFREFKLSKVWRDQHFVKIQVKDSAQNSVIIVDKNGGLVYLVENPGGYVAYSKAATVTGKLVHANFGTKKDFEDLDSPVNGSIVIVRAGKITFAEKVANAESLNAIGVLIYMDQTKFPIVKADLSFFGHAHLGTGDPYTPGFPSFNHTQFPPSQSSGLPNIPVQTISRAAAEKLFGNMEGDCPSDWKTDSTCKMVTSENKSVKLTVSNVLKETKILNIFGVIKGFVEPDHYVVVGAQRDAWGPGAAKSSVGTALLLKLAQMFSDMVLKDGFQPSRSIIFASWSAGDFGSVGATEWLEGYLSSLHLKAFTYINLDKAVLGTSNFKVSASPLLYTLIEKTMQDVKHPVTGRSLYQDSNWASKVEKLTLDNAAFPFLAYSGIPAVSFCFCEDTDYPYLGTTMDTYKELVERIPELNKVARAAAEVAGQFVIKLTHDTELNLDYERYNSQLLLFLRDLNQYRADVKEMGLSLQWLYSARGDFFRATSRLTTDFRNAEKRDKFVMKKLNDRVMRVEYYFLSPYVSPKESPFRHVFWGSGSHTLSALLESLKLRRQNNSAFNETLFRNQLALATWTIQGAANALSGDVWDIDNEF

[4] = molecular target: T4, human transferrin receptor (TfR) ectodomain (ECD) (human, UniProt P02786 121-760, biotinylated where captured on streptavidin); test: phage ELISA: phage at about its EC50 on plate-coated human TfR with soluble holo-Tf added at 0.007-5 uM; OD650
T4 construct: also called human TfR; huTfR

[5] = molecular target: T4, human transferrin receptor (TfR) …; test: competition phage ELISA: phage-displayed clone at about its EC50 on plate-coated human TfR, soluble human TfR varied as competitor; OD650
[6] = molecular target: T3, cynomolgus transferrin receptor (TfR) …; test: phage ELISA: Fc variant on phage, titrated by OD268 of the phage solution on plate-coated cyno TfR; OD650
[7] = molecular target: T3, cynomolgus transferrin receptor (TfR) …; test: as above
[8] = molecular target: T4, human transferrin receptor (TfR) …; test: phage ELISA: Fc variant on phage, titrated by OD268 of the phage solution on plate-coated human TfR; OD650
[9] = molecular target: T3, cynomolgus transferrin receptor (TfR) …; test: phage ELISA: Fc variant on phage, titrated by OD268 of the phage solution on plate-coated cyno TfR; OD650

B1: loop-truncated human TfR apical domain displayed on phage (receptor)
chain: SSGLPNIPVQTISRAAAEKLFGNMEGDCPSDWKTDSTCRMVTSESKNVKLTVSNDSAQNSVIIVDKNGRLVYLVENPGGYVAYSKAATVTGKLVHANFGTKKDFEDLYTPVNGSIVIVRAGKITFAEKVANAESLNAIGVLIYMDQTKFPIVNAELSGP
notes: fused to phage coat, Myc-tagged; also called human TfR apical domain (phage)
[1]
  binding result: binds
CH3C.18 Fc-Fab fusion
  binding result: binds

B2: loop-truncated cynomolgus TfR apical domain displayed on phage (receptor)
chain: SSGLPNIPVQTISRAAAEKLFGNMEGDCPSDWKTDSTCKMVTSENKSVKLTVSNDSAQNSVIIVDKNGGLVYLVENPGGYVAYSKAATVTGKLVHANFGTKKDFEDLDSPVNGSIVIVRAGKITFAEKVANAESLNAIGVLIYMDQTKFPIVKADLSGP
notes: fused to phage coat, Myc-tagged; also called cyno apical domain (phage)
[2]
  binding result: binds

B3: Clone CH2A2.4 (designed binder)
chain: PCPAPELLGGPSVFLFPPKPKDTLMISRTPEVTCVVVDVSHEDPEVSFEWYVDGVPVRWEWQWPREEQYNSTYRVVSVLTVLHQDWLNGKEYKCKVSNKALPAPIEKTISKAKGQPREPQVYTLPPSRDELTKNQVSLTCLVKGFYPSDIAVEWESNGQPENNYKTTPPVLDSDGSFFLYSKLTVDKSRWQQGNVFSCSVMHEALHNHYTQKSLSLSPGK
[3]
  binding result: binds
[4]
  binding result: binds

B4: Clone CH2A2.1 (designed binder)
chain: PCPAPELLGGPSVFLFPPKPKDTLMISRTPEVTCVVVDVSHEDPEVEFIWYVDGVDVRYEWQLPREEQYNSTYRVVSVLTVLHQDWLNGKEYKCKVSNKALPAPIEKTISKAKGQPREPQVYTLPPSRDELTKNQVSLTCLVKGFYPSDIAVEWESNGQPENNYKTTPPVLDSDGSFFLYSKLTVDKSRWQQGNVFSCSVMHEALHNHYTQKSLSLSPGK
[5]
  binding result: binds
[6]
  binding result: binds

B5: Clone CH2A2.5 (designed binder)
chain: PCPAPELLGGPSVFLFPPKPKDTLMISRTPEVTCVVVDVSHEDPEVAFTWYVDGVPVRWEWQNPREEQYNSTYRVVSVLTVLHQDWLNGKEYKCKVSNKALPAPIEKTISKAKGQPREPQVYTLPPSRDELTKNQVSLTCLVKGFYPSDIAVEWESNGQPENNYKTTPPVLDSDGSFFLYSKLTVDKSRWQQGNVFSCSVMHEALHNHYTQKSLSLSPGK
[7]
  binding result: binds
[8]
  binding result: binds

B6: Clone CH2A2.16 (designed binder)
chain: PCPAPELLGGPSVFLFPPKPKDTLMISRTPEVTCVVVDVSHEDPEVWFEWYVDGVFVGVAYDVPREEQYNSTYRVVSVLTVLHQDWLNGKEYKCKVSNKALPAPIEKTISKAKGQPREPQVYTLPPSRDELTKNQVSLTCLVKGFYPSDIAVEWESNGQPENNYKTTPPVLDSDGSFFLYSKLTVDKSRWQQGNVFSCSVMHEALHNHYTQKSLSLSPGK
[9]
  binding result: no binding (tested: OD268 1 (phage solution))
[4]
  binding result: binds
